Results: US20140141450A1

Assays:
[1] = molecular target: Peptide sequence V: Bz-…(mPeg2)(KLCBiot)-amide; assay: ECL bead immunoassay; uncleaved peptide sequence V on streptavidin beads, FXa 0.00 ng/mL, 20 minute incubation
[2] = molecular target: Peptide sequence V: Bz-…(mPeg2)(KLCBiot)-amide; assay: ECL bead immunoassay; uncleaved peptide sequence V on streptavidin beads, FXa 0.00 ng/mL, 10 minute incubation
NH2-…-TAG (SEQ ID NO:5) [3] = assay: ECL capture assay; uncleaved NH2-…-TAG at 1.25 µg/mL, FXa 0.00 ng/mL
NH2-…-TAG (SEQ ID NO:5) [4] = assay: ECL capture assay; uncleaved NH2-…-TAG at 2.5 µg/mL, FXa 0.00 ng/mL
[5] = molecular target: Peptide sequence VII: NH2-…-TAG Plus; assay: competitive ECL immunoassay; anti-FLAG M1 beads with peptide sequence VII-TAG Plus, uncleaved peptide sequence VI present, Xa 0.00 ng/mL
NH2-…-TAG (SEQ ID NO:5) [6] = assay: ECL capture assay; uncleaved NH2-…-TAG at 5.0 µg/mL, FXa 0.00 ng/mL
[7] = system: T1, NH2-IEGRDYKDDDDKGS-TAG (SEQ ID NO:5)
T1 sequence: IEGRDYKDDDDKGS

[8] = system: T2, Peptide sequence V: Bz-IEGRDYKDDDDKGSHHHHHH(mPeg2)(KLCBiot)-amide
T2 sequence: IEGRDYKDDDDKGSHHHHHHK

[9] = system: T3, Peptide probe sequence I: Biotin-IEGRGS (KBv TAG Plus) amide
T3 sequence: IEGRGSK

[10] = system: T4, Peptide sequence VI: NH2-IEGRDYKDDDDKGS-amide
T4 sequence: IEGRDYKDDDDKGS

[11] = system: T5, Peptide probe sequence II: Biotin-(mPeg2)IEGRGS (KBv TAG Plus) amide
T5 sequence: IEGRGSK

BV TAG Plus-conjugated ANTI-FLAG® M1 antibody
Mean Signal (ECL, background without FXa) [1]: 319 ECL signal
Mean Signal (ECL, background without FXa) [2]: 345 ECL signal

Biotin-conjugated ANTI-FLAG® M1 antibody
Mean Signal (ECL, background without FXa) (NH2-…-TAG (SEQ ID NO:5) [3]): 593 ECL signal
Mean Signal (ECL, background without FXa) (NH2-…-TAG (SEQ ID NO:5) [4]): 856 ECL signal
Mean Signal (ECL, without FXa) [5]: 91800 ECL signal
Mean Signal (ECL, background without FXa) (NH2-…-TAG (SEQ ID NO:5) [6]): 1770 ECL signal

factor Xa (FXa)
Mean Signal (ECL, capture on anti-FLAG M1 beads), FXa 1.37 ng/mL, peptide 1.25 µg/mL [7]: 1140 ECL signal
Mean Signal (ECL, capture on anti-FLAG M1 beads), FXa 1.37 ng/mL, peptide 2.5 µg/mL [7]: 1390 ECL signal
Mean Signal (ECL, capture on anti-FLAG M1 beads), FXa 1.37 ng/mL, peptide 5.0 µg/mL [7]: 3720 ECL signal
Mean Signal (ECL, capture on anti-FLAG M1 beads), FXa 4.12 ng/mL, peptide 1.25 µg/mL [7]: 2170 ECL signal
Mean Signal (ECL, capture on anti-FLAG M1 beads), FXa 4.12 ng/mL, peptide 2.5 µg/mL [7]: 3830 ECL signal
Mean Signal (ECL, capture on anti-FLAG M1 beads), FXa 4.12 ng/mL, peptide 5.0 µg/mL [7]: 6360 ECL signal
Mean Signal (ECL, capture on anti-FLAG M1 beads), FXa 12.3 ng/mL, peptide 1.25 µg/mL [7]: 4440 ECL signal
Mean Signal (ECL, capture on anti-FLAG M1 beads), FXa 12.3 ng/mL, peptide 2.5 µg/mL [7]: 7700 ECL signal
Mean Signal (ECL, capture on anti-FLAG M1 beads), FXa 12.3 ng/mL, peptide 5.0 µg/mL [7]: 14900 ECL signal
Mean Signal (ECL, capture on anti-FLAG M1 beads), FXa 37.0 ng/mL, peptide 1.25 µg/mL [7]: 10700 ECL signal
Mean Signal (ECL, capture on anti-FLAG M1 beads), FXa 37.0 ng/mL, peptide 2.5 µg/mL [7]: 20100 ECL signal
Mean Signal (ECL, capture on anti-FLAG M1 beads), FXa 37.0 ng/mL, peptide 5.0 µg/mL [7]: 32300 ECL signal
Mean Signal (ECL, capture on anti-FLAG M1 beads), FXa 111 ng/mL, peptide 1.25 µg/mL [7]: 20500 ECL signal
Mean Signal (ECL, capture on anti-FLAG M1 beads), FXa 111 ng/mL, peptide 2.5 µg/mL [7]: 41800 ECL signal
Mean Signal (ECL, capture on anti-FLAG M1 beads), FXa 111 ng/mL, peptide 5.0 µg/mL [7]: 62100 ECL signal
Mean Signal (ECL, capture on anti-FLAG M1 beads), FXa 333 ng/mL, peptide 1.25 µg/mL [7]: 52800 ECL signal
Mean Signal (ECL, capture on anti-FLAG M1 beads), FXa 333 ng/mL, peptide 2.5 µg/mL [7]: 62700 ECL signal
Mean Signal (ECL, capture on anti-FLAG M1 beads), FXa 333 ng/mL, peptide 5.0 µg/mL [7]: 78700 ECL signal
Mean Signal (ECL, capture on anti-FLAG M1 beads), FXa 1000 ng/mL, peptide 1.25 µg/mL [7]: 69000 ECL signal
Mean Signal (ECL, capture on anti-FLAG M1 beads), FXa 1000 ng/mL, peptide 2.5 µg/mL [7]: 78200 ECL signal
Mean Signal (ECL, capture on anti-FLAG M1 beads), FXa 1000 ng/mL, peptide 5.0 µg/mL [7]: 86900 ECL signal
Signal/Background, FXa 1.37 ng/mL, peptide 1.25 µg/mL [7]: 1.9
Signal/Background, FXa 1.37 ng/mL, peptide 2.5 µg/mL [7]: 1.6
Signal/Background, FXa 1.37 ng/mL, peptide 5.0 µg/mL [7]: 2.1
Signal/Background, FXa 4.12 ng/mL, peptide 1.25 µg/mL [7]: 3.7
Signal/Background, FXa 4.12 ng/mL, peptide 2.5 µg/mL [7]: 4.5
Signal/Background, FXa 4.12 ng/mL, peptide 5.0 µg/mL [7]: 3.6
Signal/Background, FXa 12.3 ng/mL, peptide 1.25 µg/mL [7]: 7.5
Signal/Background, FXa 12.3 ng/mL, peptide 2.5 µg/mL [7]: 9
Signal/Background, FXa 12.3 ng/mL, peptide 5.0 µg/mL [7]: 8.4
Signal/Background, FXa 37.0 ng/mL, peptide 1.25 µg/mL [7]: 18
Signal/Background, FXa 37.0 ng/mL, peptide 2.5 µg/mL [7]: 24
Signal/Background, FXa 37.0 ng/mL, peptide 5.0 µg/mL [7]: 18
Signal/Background, FXa 111 ng/mL, peptide 1.25 µg/mL [7]: 35
Signal/Background, FXa 111 ng/mL, peptide 2.5 µg/mL [7]: 49
Signal/Background, FXa 111 ng/mL, peptide 5.0 µg/mL [7]: 35
Signal/Background, FXa 333 ng/mL, peptide 1.25 µg/mL [7]: 89
Signal/Background, FXa 333 ng/mL, peptide 2.5 µg/mL [7]: 73
Signal/Background, FXa 333 ng/mL, peptide 5.0 µg/mL [7]: 45
Signal/Background, FXa 1000 ng/mL, peptide 1.25 µg/mL [7]: 116
Signal/Background, FXa 1000 ng/mL, peptide 2.5 µg/mL [7]: 91
Signal/Background, FXa 1000 ng/mL, peptide 5.0 µg/mL [7]: 49
Mean Signal (ECL, TAG Plus anti-FLAG M1 detector), FXa 0.686 ng/mL, 10 minute incubation [8]: 856 ECL signal
Mean Signal (ECL, TAG Plus anti-FLAG M1 detector), FXa 0.686 ng/mL, 20 minute incubation [8]: 1050 ECL signal
Mean Signal (ECL, TAG Plus anti-FLAG M1 detector), FXa 2.06 ng/mL, 10 minute incubation [8]: 1430 ECL signal
Mean Signal (ECL, TAG Plus anti-FLAG M1 detector), FXa 2.06 ng/mL, 20 minute incubation [8]: 2110 ECL signal
Mean Signal (ECL, TAG Plus anti-FLAG M1 detector), FXa 6.17 ng/mL, 10 minute incubation [8]: 3100 ECL signal
Mean Signal (ECL, TAG Plus anti-FLAG M1 detector), FXa 6.17 ng/mL, 20 minute incubation [8]: 6040 ECL signal
Mean Signal (ECL, TAG Plus anti-FLAG M1 detector), FXa 18.5 ng/mL, 10 minute incubation [8]: 8790 ECL signal
Mean Signal (ECL, TAG Plus anti-FLAG M1 detector), FXa 18.5 ng/mL, 20 minute incubation [8]: 20700 ECL signal
Mean Signal (ECL, TAG Plus anti-FLAG M1 detector), FXa 55.6 ng/mL, 10 minute incubation [8]: 33700 ECL signal
Mean Signal (ECL, TAG Plus anti-FLAG M1 detector), FXa 55.6 ng/mL, 20 minute incubation [8]: 74000 ECL signal
Mean Signal (ECL, TAG Plus anti-FLAG M1 detector), FXa 167 ng/mL, 10 minute incubation [8]: 113000 ECL signal
Mean Signal (ECL, TAG Plus anti-FLAG M1 detector), FXa 167 ng/mL, 20 minute incubation [8]: 225000 ECL signal
Mean Signal (ECL, TAG Plus anti-FLAG M1 detector), FXa 500 ng/mL, 10 minute incubation [8]: 298000 ECL signal
Mean Signal (ECL, TAG Plus anti-FLAG M1 detector), FXa 500 ng/mL, 20 minute incubation [8]: 498000 ECL signal
Signal/Background, FXa 0.686 ng/mL, 10 minute incubation [8]: 2.5
Signal/Background, FXa 0.686 ng/mL, 20 minute incubation [8]: 3.3
Signal/Background, FXa 2.06 ng/mL, 10 minute incubation [8]: 4.1
Signal/Background, FXa 2.06 ng/mL, 20 minute incubation [8]: 6.6
Signal/Background, FXa 6.17 ng/mL, 10 minute incubation [8]: 9
Signal/Background, FXa 6.17 ng/mL, 20 minute incubation [8]: 19
Signal/Background, FXa 18.5 ng/mL, 10 minute incubation [8]: 25
Signal/Background, FXa 18.5 ng/mL, 20 minute incubation [8]: 65
Signal/Background, FXa 55.6 ng/mL, 10 minute incubation [8]: 98
Signal/Background, FXa 55.6 ng/mL, 20 minute incubation [8]: 232
Signal/Background, FXa 167 ng/mL, 10 minute incubation [8]: 328
Signal/Background, FXa 167 ng/mL, 20 minute incubation [8]: 706
Signal/Background, FXa 500 ng/mL, 10 minute incubation [8]: 864
Signal/Background, FXa 500 ng/mL, 20 minute incubation [8]: 1560
% Signal Decrease, FXa 78.1 ng/mL [9]: -3%
% Signal Decrease, FXa 156 ng/mL [9]: -3%
% Signal Decrease, FXa 313 ng/mL [9]: -9%
% Signal Decrease, FXa 625 ng/mL [9]: -15%
% Signal Decrease, FXa 1250 ng/mL [9]: -31%
% Signal Decrease, FXa 2500 ng/mL [9]: -53%
% Signal Decrease, FXa 5000 ng/mL [9]: -76%
Mean Signal (ECL), FXa 78.1 ng/mL [9]: 414000 ECL signal
Mean Signal (ECL), FXa 156 ng/mL [9]: 413000 ECL signal
Mean Signal (ECL), FXa 313 ng/mL [9]: 388000 ECL signal
Mean Signal (ECL), FXa 625 ng/mL [9]: 363000 ECL signal
Mean Signal (ECL), FXa 1250 ng/mL [9]: 296000 ECL signal
Mean Signal (ECL), FXa 2500 ng/mL [9]: 202000 ECL signal
Mean Signal (ECL), FXa 5000 ng/mL [9]: 104000 ECL signal
% Signal Decrease, Xa 0.686 ng/mL [10]: -8.5%
% Signal Decrease, Xa 2.06 ng/mL [10]: -22%
% Signal Decrease, Xa 6.17 ng/mL [10]: -42%
% Signal Decrease, Xa 18.5 ng/mL [10]: -60%
% Signal Decrease, Xa 55.6 ng/mL [10]: -75%
% Signal Decrease, Xa 167 ng/mL [10]: -84%
% Signal Decrease, Xa 500 ng/mL [10]: -89%
Mean Signal (ECL, competitive format), Xa 0.686 ng/mL [10]: 84000 ECL signal
Mean Signal (ECL, competitive format), Xa 2.06 ng/mL [10]: 71900 ECL signal
Mean Signal (ECL, competitive format), Xa 6.17 ng/mL [10]: 53000 ECL signal
Mean Signal (ECL, competitive format), Xa 18.5 ng/mL [10]: 36400 ECL signal
Mean Signal (ECL, competitive format), Xa 55.6 ng/mL [10]: 22500 ECL signal
Mean Signal (ECL, competitive format), Xa 167 ng/mL [10]: 14300 ECL signal
Mean Signal (ECL, competitive format), Xa 500 ng/mL [10]: 9830 ECL signal
% Signal Decrease, FXa 78.1 ng/mL [11]: 0%
% Signal Decrease, FXa 156 ng/mL [11]: -4%
% Signal Decrease, FXa 313 ng/mL [11]: -11%
% Signal Decrease, FXa 625 ng/mL [11]: -10%
% Signal Decrease, FXa 1250 ng/mL [11]: -24%
% Signal Decrease, FXa 2500 ng/mL [11]: -39%
% Signal Decrease, FXa 5000 ng/mL [11]: -66%
Mean Signal (ECL), FXa 78.1 ng/mL [11]: 340000 ECL signal
Mean Signal (ECL), FXa 156 ng/mL [11]: 326000 ECL signal
Mean Signal (ECL), FXa 313 ng/mL [11]: 303000 ECL signal
Mean Signal (ECL), FXa 625 ng/mL [11]: 306000 ECL signal
Mean Signal (ECL), FXa 1250 ng/mL [11]: 257000 ECL signal
Mean Signal (ECL), FXa 2500 ng/mL [11]: 209000 ECL signal
Mean Signal (ECL), FXa 5000 ng/mL [11]: 117000 ECL signal
